According to patent publication US11180770B2, “HPPD variants and methods of use” (BASF Agricultural Solutions Seed US LLC, priority 2017, dated 2021):

Test system: HPPD polypeptides
Experiment: coupled HPPD activity assay: turnover and residual turnover in crude extracts
Assay type: biochemical, Pseudomonas fluorescens
Conditions: for Residual turnover [%]: 100 μM Cmpd. 1, signal change with inhibitor divided by signal change without inhibitor; for Turnover: absence of Cmpd. 1, kinetic changes in absorbance (OD) at 320 nm, 30 min; for Turnover / Residual turnover: high substrate concentration; for Residual turnover: presence of 100 μM Cmpd. 1, changes in absorbance (OD) at 320 nm

| Molecule | Residual turnover [%] | Turnover | Residual turnover |
| --- | --- | --- | --- |
| 16 (protein, mutant HPPD polypeptide) MADLYENPMGLMGFEFIEFASPTPGTLEPIFEIMGFTKVATHRSKNVHLYRQGEINLILNNEPNSIASYFAAEHGPSVCGMAFRVKDSQKAYNRALELGAQPIHIDTGPMELNLPAIKGIGGAPLYLIDRFGEGSSIYDIDFVYLEGVERNPVGAGLKVIDHLTHNVYRGRMVYWANFYEKLFNFREARYFDIKGEYTGLTSKAMSAPDGMIRIPLNEESSKGAGQIEEFLMQFNGEGIQHVAFLTDDLVKTWDALKKIGMRFMTAPSDNYYEMLEGRLPDHGEPVDQLQARGILLDGSSVEGDKRLLLQIFSETLMGPVFFEFIQRKGDDGFGPDSFKVLFESVERDQVRRGVLTAD | 46 | 0.181 | 0.083 |
| 27 (protein, mutant HPPD polypeptide) MADLYENPMGLMGFEFIEFASPTPGTLEPIFEIMGFTKVATHRSKNVHLYRQGEINLILNNEPNSIASYFAAEHGPSVCGMAFRVKDSQKAYNRALELGAQPIHIDTGPMELNLPAIKGIGGAPLYLIDRFGEGSSIYDIDFVYLEGVERNPVGAGLKVIDHLTHNVYRGRMVYWANFYEKLFNFREARYFDIKGEYTGLTSKAMSAPDGMIRIPLNEESSKGAGQIEEFLMQFNGEGIQHVAFLTDDLVKTWDALKKIGMRFMTAPADNYYEMLEGRLPDHGEPVDQLQARGILLDGSSVEGDKRLLLQIFSETLMGPVFFEFIQRKGDDGFGPHSFKVLFESIERDQVRRGVLTAD | 38 | 0.266 | 0.101 |
| 24 (protein, mutant HPPD polypeptide) MADLYENPMGLMGFEFIEFASPTPGTLEPIFEIMGFTKVATHRSKNVHLYRQGEINLILNNEPNSIASYFAAEHGPSVCGMAFRVKDSQKAYNRALELGAQPIHIDTGPMELNLPAIKGIGGAPLYLIDRFGEGSSIYDIDFVYLEGVERNPVGAGLKVIDHLTHNVYRGRMVYWANFYEKLFNFREARYFDIKGEYTGLTSKAMSAPDGMIRIPLNEESSKGAGQIEEFLMQFNGEGIQHVAFLTDDLVKTWDALKKIGMRFMTAPADTYYEMLEGRLPDHGEPVDQLQARGILLDGSSVEGDKRLLLQIFSETLMGPVFFEFIQRKGDDGFGPHSFKVLFESIERDQVRRGVLTAD | 39 | 0.271 | 0.105 |
| 20 (protein, mutant HPPD polypeptide) MADLYENPMGLMGFEFIEFASPTPGTLEPIFEIMGFTKVATHRSKNVHLYRQGEINLILNNEPNSIASYFAAEHGPSVCGMAFRVKDSQKAYNRALELGAQPIHIDTGPMELNLPAIKGIGGAPLYLIDRFGEGSSIYDIDFVYLEGVERNPVGAGLKVIDHLTHNVYRGRMVYWANFYEKLFNFREARYFDIKGEYTGLTSKAMSAPDGMIRIPLNEESSKGAGQIEEFLMQFNGEGIQHVAFLTDDLVKTWDALKKIGMRFMTAPSDEYYEMLEGRLPDHGEPVDQLQARGILLDGSSVEGDKRLLLQIFSETLMGPVFFEFIQRKGDDGFGPDSFKVLFESVERDQVRRGVLTAD | 53 | 0.199 | 0.105 |
| 22 (protein, mutant HPPD polypeptide) MADLYENPMGLMGFEFIEFASPTPGTLEPIFEIMGFTKVATHRSKNVHLYRQGEINLILNNEPNSIASYFAAEHGPSVCGMAFRVKDSQKAYNRALELGAQPIHIDTGPMELNLPAIKGIGGAPLYLIDRFGEGSSIYDIDFVYLEGVERNPVGAGLKVIDHLTHNVYRGRMVYWANFYEKLFNFREARYFDIKGEYTGLTSKAMSAPDGMIRIPLNEESSKGAGQIEEFLMQFNGEGIQHVAFLTDDLVKTWDALKKIGMRFMTAPGDTYYEMLEGRLPDHGEPVDQLQARGILLDGSSVEGDKRLLLQIFSETLMGPVFFEFIQRKGDDGFGPDSFKVLFEQVERDQVRRGVLTAD | 47 | 0.132 | 0.062 |
| 26 (protein, mutant HPPD polypeptide) MADLYENPMGLMGFEFIEFASPTPGTLEPIFEIMGFTKVATHRSKNVHLYRQGEINLILNNEPNSIASYFAAEHGPSVCGMAFRVKDSQKAYNRALELGAQPIHIDTGPMELNLPAIKGIGGAPLYLIDRFGEGSSIYDIDFVYLEGVERNPVGAGLKVIDHLTHNVYRGRMVYWANFYEKLFNFREARYFDIKGEYTGLTSKAMSAPDGMIRIPLNEESSKGAGQIEEFLMQFNGEGIQHVAFLTDDLVKTWDALKKIGMRFMTAPPDTYYEMLEGRLPDHGEPVDQLQARGILLDGSSVEGDKRLLLQIFSETLMGPVFFEFIQRKGDDGFGPHSFKVLFESIERDQVRRGVLTAD | 28 | 0.279 | 0.077 |
| 18 (protein, mutant HPPD polypeptide) MADLYENPMGLMGFEFIEFASPTPGTLEPIFEIMGFTKVATHRSKNVHLYRQGEINLILNNEPNSIASYFAAEHGPSVCGMAFRVKDSQKAYNRALELGAQPIHIDTGPMELNLPAIKGIGGAPLYLIDRFGEGSSIYDIDFVYLEGVERNPVGAGLKVIDHLTHNVYRGRMVYWANFYEKLFNFREARYFDIKGEYTGLTSKAMSAPDGMIRIPLNEESSKGAGQIEEFLMQFNGEGIQHVAFLTDDLVKTWDALKKIGMRFMTAPPDEYYEMLEGRLPDHGEPVDQLQARGILLDGSSVEGDKRLLLQIFSETLMGPVFFEFIQRKGDDGFGPDSFKVLFESVERDQVRRGVLTAD | 43 | 0.134 | 0.057 |
| 23 (protein, mutant HPPD polypeptide) MADLYENPMGLMGFEFIEFASPTPGTLEPIFEIMGFTKVATHRSKNVHLYRQGEINLILNNEPNSIASYFAAEHGPSVCGMAFRVKDSQKAYNRALELGAQPIHIDTGPMELNLPAIKGIGGAPLYLIDRFGEGSSIYDIDFVYLEGVERNPVGAGLKVIDHLTHNVYRGRMVYWANFYEKLFNFREARYFDIKGEYTGLTSKAMSAPDGMIRIPLNEESSKGAGQIEEFLMQFNGEGIQHVAFLTDDLVKTWDALKKIGMRFMTAPPDTYYEMLEGRLPDHGEPVDQLQARGILLDGSSVEGDKRLLLQIFSETLMGPVFFEFIQRKGDDGFGPDSFKVLFEQVERDQVRRGVLTAD | 39 | 0.193 | 0.076 |
| 17 (protein, mutant HPPD polypeptide) MADLYENPMGLMGFEFIEFASPTPGTLEPIFEIMGFTKVATHRSKNVHLYRQGEINLILNNEPNSIASYFAAEHGPSVCGMAFRVKDSQKAYNRALELGAQPIHIDTGPMELNLPAIKGIGGAPLYLIDRFGEGSSIYDIDFVYLEGVERNPVGAGLKVIDHLTHNVYRGRMVYWANFYEKLFNFREARYFDIKGEYTGLTSKAMSAPDGMIRIPLNEESSKGAGQIEEFLMQFNGEGIQHVAFLTDDLVKTWDALKKIGMRFMTAPADEYYEMLEGRLPDHGEPVDQLQARGILLDGSSVEGDKRLLLQIFSETLMGPVFFEFIQRKGDDGFGPDSFKVLFESVERDQVRRGVLTAD | 59 | 0.138 | 0.081 |
| 21 (protein, mutant HPPD polypeptide) MADLYENPMGLMGFEFIEFASPTPGTLEPIFEIMGFTKVATHRSKNVHLYRQGEINLILNNEPNSIASYFAAEHGPSVCGMAFRVKDSQKAYNRALELGAQPIHIDTGPMELNLPAIKGIGGAPLYLIDRFGEGSSIYDIDFVYLEGVERNPVGAGLKVIDHLTHNVYRGRMVYWANFYEKLFNFREARYFDIKGEYTGLTSKAMSAPDGMIRIPLNEESSKGAGQIEEFLMQFNGEGIQHVAFLTDDLVKTWDALKKIGMRFMTAPADTYYEMLEGRLPDHGEPVDQLQARGILLDGSSVEGDKRLLLQIFSETLMGPVFFEFIQRKGDDGFGPDSFKVLFEQVERDQVRRGVLTAD | 51 | 0.157 | 0.080 |
| 19 (protein, mutant HPPD polypeptide) MADLYENPMGLMGFEFIEFASPTPGTLEPIFEIMGFTKVATHRSKNVHLYRQGEINLILNNEPNSIASYFAAEHGPSVCGMAFRVKDSQKAYNRALELGAQPIHIDTGPMELNLPAIKGIGGAPLYLIDRFGEGSSIYDIDFVYLEGVERNPVGAGLKVIDHLTHNVYRGRMVYWANFYEKLFNFREARYFDIKGEYTGLTSKAMSAPDGMIRIPLNEESSKGAGQIEEFLMQFNGEGIQHVAFLTDDLVKTWDALKKIGMRFMTAPRDEYYEMLEGRLPDHGEPVDQLQARGILLDGSSVEGDKRLLLQIFSETLMGPVFFEFIQRKGDDGFGPDSFKVLFESVERDQVRRGVLTAD | 45 | 0.141 | 0.063 |
| 28 (protein, mutant HPPD polypeptide) MADLYENPMGLMGFEFIEFASPTPGTLEPIFEIMGFTKVATHRSKNVHLYRQGEINLILNNEPNSIASYFAAEHGPSVCGMAFRVKDSQKAYNRALELGAQPIHIDTGPMELNLPAIKGIGGAPLYLIDRFGEGSSIYDIDFVYLEGVERNPVGAGLKVIDHLTHNVYRGRMVYWANFYEKLFNFREARYFDIKGEYTGLTSKAMSAPDGMIRIPLNEESSKGAGQIEEFLMQFNGEGIQHVAFLTDDLVKTWDALKKIGMRFMTAPGDNYYEMLEGRLPDHGEPVDQLQARGILLDGSSVEGDKRLLLQIFSETLMGPVFFEFIQRKGDDGFGPHSFKVLFESIERDQVRRGVLTAD | 43 | 0.204 | 0.088 |
| 25 (protein, mutant HPPD polypeptide) MADLYENPMGLMGFEFIEFASPTPGTLEPIFEIMGFTKVATHRSKNVHLYRQGEINLILNNEPNSIASYFAAEHGPSVCGMAFRVKDSQKAYNRALELGAQPIHIDTGPMELNLPAIKGIGGAPLYLIDRFGEGSSIYDIDFVYLEGVERNPVGAGLKVIDHLTHNVYRGRMVYWANFYEKLFNFREARYFDIKGEYTGLTSKAMSAPDGMIRIPLNEESSKGAGQIEEFLMQFNGEGIQHVAFLTDDLVKTWDALKKIGMRFMTAPGDTYYEMLEGRLPDHGEPVDQLQARGILLDGSSVEGDKRLLLQIFSETLMGPVFFEFIQRKGDDGFGPHSFKVLFESIERDQVRRGVLTAD | 39 | 0.215 | 0.083 |
